Experimental findings from PMC8956632 are described below.

First the molecules themselves.
B1: 5-HT1AR-EGFP [human] / OX1R-Rluc [human] (parent)
chain 1: MDVLSPGQGNNTTSPPAPFETGGNTTGISDVTVSYQVITSLLLGTLIFCAVLGNACVVAAIALERSLQNVANYLIGSLAVTDLMVSVLVLPMAALYQVLNKWTLGQVTCDLFIALDVLCCTSSILHLCAIALDRYWAITDPIDYVNKRTPRRAAALISLTWLIGFLISIPPMLGWRTPEDRSDPDACTISKDHGYTIYSTFGAFYIPLLLMLVLYGRIFRAARFRIRKTVKKVEKTGADTRHGASPAPQPKKSVNGESGSRNWRLGVESKAGGALCANGAVRQGDDGAALEVIEVHRVGNSKEHLPLPSEAGPTPCAPASFERKNERNAEAKRKMALARERKTVKTLGIIMGTFILCWLPFFIVALVLPFCESSCHMPTLLGAIINWLGYSNSLLNPVIYAYFNKDFQNAFKKIIKCKFCRQ
chain 2: MEPSATPGAQMGVPPGSREPSPVPPDYEDEFLRYLWRDYLYPKQYEWVLIAAYVAVFVVALVGNTLVCLAVWRNHHMRTVTNYFIVNLSLADVLVTAICLPASLLVDITESWLFGHALCKVIPYLQAVSVSVAVLTLSFIALDRWYAICHPLLFKSTARRARGSILGIWAVSLAIMVPQAAVMECSSVLPELANRTRLFSVCDERWADDLYPKIYHSCFFIVTYLAPLGLMAMAYFQIFRKLWGRQIPGTTSALVRNWKRPSDQLGDLEQGLSGEPQPRARAFLAEVKQMRARRKTAKMLMVVLLVFALCYLPISVLNVLKRVFGMFRQASDREAVYACFTFSHWLVYANSAANPIIYNFLSGKFREQFKAAFSCCLPGLGPCGSLKAPSPRSSASHKSLSLQSRCSISKISEHVVLTSVTTVLP
B2: OX1R-EGFP [human] / 5-HT1AR-Rluc [human] (parent)
chain 1: B1 chain 2
chain 2: B1 chain 1

Variants of B1 are the subject of one assay. Put plainly: BRET. To be noted: with OX1R-Rluc [human]; HEK293 cells, basal (no agonist); parent: 0.26; read off a plot. In general terms: BRET reads energy transfer from a luciferase to a nearby fluorophore.
As for chain 1 R151A, the response amounted to 0.16.
Turning to chain 1 Y198A, the response is 0.23.
As to chain 1 W175A, the response was 0.26.

In another assay the parent is B2. Put plainly: BRET. Conditions: with 5-HT1AR-Rluc [human]; HEK293 cells, basal (no agonist); parent: 0.27; read off a plot.
Regarding chain 1 L230A, the response amounted to 0.21.
The same measure, in the same setting: the result for chain 1 M176A reads 0.15; that for chain 1 R160A, 0.27; that for chain 1 L225A, 0.23.
